# Residue numbers refer to the chain shown, from its start.
# T1: human IL-11 (human, UniProt P20809 22-199)
# T1 sequence (looked up): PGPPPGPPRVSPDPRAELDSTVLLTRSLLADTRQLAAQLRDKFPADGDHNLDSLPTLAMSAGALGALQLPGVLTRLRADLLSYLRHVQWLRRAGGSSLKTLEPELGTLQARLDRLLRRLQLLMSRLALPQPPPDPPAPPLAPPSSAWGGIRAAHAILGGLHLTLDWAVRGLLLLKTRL
# B1: YU100-E11 (scFv)
# scFv: QVQLVESGGGVVQPGRSLRLSCAASGFTFSSYGMHWVRQAPGKGLEWVAVISYDGSNKYYADSVKGRFTISRDNSKNTLYLQMNSLRAEDTAVYYCARIMGYDYGDYDVVDYWGQGTLVTVSSGSASAPKLEEGEFSEARVQSALTQPRSVSGSPGQSVTISCTGTSSDVGGYNYVSWYQQHPGKAPKLMIYDVSKRPSGVPDRFSGSKSGNTASLTISGLQAEDEADYYCCSYAGSYTWVFGGGTKLTVL
# B2: YU100-H06 (scFv, not shown: a dimerising Fc or GST)
# scFv: QVQLVESGGGVVQPGRSLRLSCAASGFTFSSYGMHWVRQAPGKGLEWVAVISYDGSNKYYADSVKGRFTISRDNSKNTLYLQMNSLRAEDTAVYYCAKIGATDPLDYWGQGTLVTVSSGSASAPKLEEGEFSEARIQSALTQPRSVSGSPGQSVTISCTGTSSDVGGYNYVSWYQQHPGKAPKLMIYDVTKRPSGVPDRFSGSKSGNTASLTISGLQAEDEADYYCSSYAGSYTWVFGGGTKLTVL
# B3: YU100-A11 (scFv)
# scFv: B2 scFv with Q1E, V5Q, E6Q, I136V, T190S, S227C
# B4: YU100-B06 (scFv)
# scFv: B2 scFv with G66S, I136V, R144A, V154I, T190S, S227N
# B5: YU100-H11 (scFv, not shown: a dimerising Fc or GST)
# scFv: B2 scFv with E6Q, I136V, R144A, V154I, T190S, K191N, P197S, D198N, S227C
# B6: YU112-G06 (scFv)
# scFv: B2 scFv with V5Q, I136V, S162I, P193R, D223G, S232G, K242E
# B7: YU112-D08 (scFv)
# scFv: B2 scFv with K65E, I136V, S162I, D223G, K242E
# B8: YU100-G01 (scFv)
# scFv: B2 scFv with E6Q, I136V, G148A, G167A, I186L, T190N, G215R, S227C
# B9: YU100-B01 (scFv)
# scFv: B2 scFv with E6Q, I136V, S162N, S163T, G167A, H177Y, M185I, T190S, S227C, T234S
# B10: YU100-G09 (scFv)
# scFv: B2 scFv with Q1E, I136V, S162I, D223G
# B11: YU100-A12 (scFv)
# scFv: B2 scFv with I136V, Q137L, S138P, A139V, T190S, N207D
# B12: YU100-E10 (scFv)
# scFv: B2 scFv with E6Q, I136V, Y187F, T190S, K191Q, G202A, S227C
# B13: YU112-A07 (scFv, not shown: a dimerising Fc or GST)
# scFv: B2 scFv with A61T, I136V, S162I, D223G, K242E
# B14: YU100-E12 (scFv)
# scFv: QVQLVESGGGVVQPGRSLRLSCAASGFTFSSYGMHWVRQAPGKGLEWVAVISYDGSNKYYADSVKGRFTISRDNSKNTLYLQMNSLRAEDTAVYYCAKIGATDPLDYWGQGTLVTVSSGSASAPKLEEGEFSEARVQSALTQPASVSGSPGQSITISCTGTSSDVGGYNYVSWYQQHPGTAPKLMIYDVSNRPSGVSNRFSGSKSGNTASLTISGLQAEDEADYYCSSYTSSTTWVFGGGTKLTVL
# B15: YU100-F02 (scFv)
# scFv: B2 scFv with Q1E, I136V, E219D, S227C, V236I
# B16: YU112-B06 (scFv, not shown: a dimerising Fc or GST)
# scFv: B14 scFv with T180K, S214F, T233S, T234S
# B17: YU100-B03 (scFv)
# scFv: QVQLVQSGGGVVQPGRSLRLSCAASGFTFSSYGMHWVRQAPGKGLEWVAVISYDGSNKYYADSVKGRFTISRDNSKNTLYLQMNSLRAEDTAVYYCAKIGATDPLDYWGQGTLVTVSSGSASAPKLEEGEFSEARVQSVLTQPRSVSGSPGRSVTISCTGTSSDVGGYNYVSWYQQHPGKAPKLTLYDVVKRPSGVPDRYSGSKSGNTASLTISGLQAEDEADYYCCSYAGGYTWVFGGGTKVTVV
# B18: YU100-B07 (scFv)
# scFv: B2 scFv with I136V, I156M, S163R, Q176H, T190S, G215E, S227C
# B19: YU100-E07 (scFv)
# scFv: B2 scFv with V5Q, K58R, T69A, I136V, N169D, K183E, P197A, S227C, S232R
# B20: YU100-H05 (scFv)
# scFv: B2 scFv with I136V, S138A, A139V, V154I, S162G, D164N, K180Q, T190S, S227C, S232T
# Molecular target: T1, human IL-11
# Test: cell-based or functional assay
# Also: test concentration or dose not given here.
"MMP2 production (ng/ml), TGFB1-stimulated human atrial fibroblasts, Experiment 1 (NEG 42.7, POS 70.2) [ng/mL]","MMP2 production (ng/ml), TGFB1-stimulated human atrial fibroblasts, Experiment 2 (NEG 36.2, POS 62.3) [ng/mL]",Binder
49.1,41.9,B1
52.3,43.9,B2
51.6,45.7,B3
47.6,49.6,B4
53.7,45.5,B5
55,47.8,B6
50.3,42.5,B7
56.6,49.7,B8
52.5,40,B9
59.9,47.5,B10
59.5,50.4,B11
56.1,47,B12
50.7,45,B13
56,47.9,B14
51.2,43.5,B15
49.7,43.9,B16
47.3,46.8,B17
55.9,47.4,B18
52.1,46.5,B19
57.1,47.8,B20

# From US20180186871A1 (SINGAPORE HEALTH SERVICES PTE, published 2018)
